Measurements: patent US20180092961

Experiments:
[1] = target: calf thymus histone H3 (Roche) (UniProt P68432)
[2] = target: calf thymus histone H4 (Roche) (UniProt P62803)
[3] = test system: murine histone H2A released from activated RAW264.7 macrophages
murine histone H3 = murine histone H3 (UniProt P68433)
[4] = target: murine histone H4 released from activated RAW264.7 macrophages (UniProt P62806)

human recombinant activated protein C (Xigris)
cleavage in a purified system, SDS-PAGE [1]: APC cleaved histone H3 and H4 in a dose dependent fashion
cleavage in a purified system, SDS-PAGE [2]: APC cleaved histone H3 and H4 in a dose dependent fashion
cleavage, SDS-PAGE [2]: Purified histone H4 was also cleaved by APC and a cluster of 4-7 KD fragments could be found on SDS-PAGE
new protein bands in conditioned medium in the presence of APC, MS/MS after tryptic digestion [3]: three peptide sequences ... in this protein band that matchs the murine histone H2A protein sequence (amino acids 21-29, 82-88 and 100-118)
new protein bands in conditioned medium in the presence of APC, Edman sequencing (murine histone H3): The N-terminal sequence of the 13 kD band protein was KSAPATGGV (SEQ ID NO:15) which matches the murine histone H3 internal sequence (Lys27-Lys36)
cleavage, Western blot of conditioned medium [4]: histone H4 was released into the conditioned medium and was cleaved by APC
new protein bands in conditioned medium in the presence of APC, Edman sequencing [4]: N-terminal sequence of the 10 kD band protein which matches the murine histone H4 internal sequence (Val21-Ile34)
